Where two headings read alike, the source gives them in different places.

Targets include βI14-15 Y1866A; βI14-15 A1867P; βI14-15 D1700A; βI14-15 D1701A; βI14-15 E1703A; βI14-15 E1708A; βI14-15 E1710A; βI14-15 D1781A; βI14-15 E1784A.
Common to all, as to experiment: ITC
Experiment [1] deals with βI14-15 T1788A.
For experiment [2], the target named is βI14-15 T1788A. The source holds these as a separate data set.
Experiment [3] addresses wild type βI-spectrin 14-15 di-repeat.

B1: ZU5 domain of ankyrin (domain or fragment)
chain: FLVSFMVDARGGSMRGSRHNGLRVVIPPRTCAAPTRITCRLVKPQKLSTPPPLAEEEGLASRIIALGPTGAQFLSPVIVEIPHFASHGRGDRELVVLRSENGSVWKEHRSRYGESYLDQILNGMDEELGSLEELEKKRVCRIITTDFPLYFVIMSR
Take B1: the dissociation constant (Kd) with βI14-15 T1788A [1] was 5.8 µM; with βI14-15 T1788A [2] it was 5.73 µM; with βI14-15 Y1866A it was 22 µM; with βI14-15 A1867P, 14.9 µM; in [3], 190 nM; in the experiment with βI14-15 D1700A, 440 nM. Also, the Kd turned out to be 360 nM in the experiment with βI14-15 D1701A; 320 nM in the experiment with βI14-15 E1703A; 430 nM in the experiment with βI14-15 E1708A; 1700 nM with βI14-15 E1710A; 2100 nM with βI14-15 D1781A; 43.4 µM with βI14-15 E1784A.

Values taken from article PMC2839365 (Biochemical and biophysical research communications, 2010).
